Measurements reported in US10562947B2, “Compositions and methods for preventing or treating diseases, conditions or processes characterized by aberrant fibroblast proliferation and extracellular matrix deposition” (MOERAE MATRIX, INC., priority 2011, dated 2020).

Columns and labels:
Experiment in all cases: Kinase Profiling Assay
Assay type in all cases: biochemical
Details in all cases: 100 μM peptide
[1] = biological target: T1, HIPK2(h) (Homo sapiens, UniProt Q9H2X6)
T1 construct: purchased Millipore
Procedure: (§1) Every kinase activity measurement was conducted in duplicate.
(§2) In addition to determining the IC50 of the compound, the specificity of MK2 inhibitory peptides was assessed by examining activities of all 266 human kinases available for testing in the Millipore kinase profiling service (Table 1).

[2] = biological target: T2, IR(h) (Homo sapiens, UniProt P06213)
T2 construct: purchased Millipore
Procedure: as §1, §2

[3] = biological target: Tie2(h) (Homo sapiens, UniProt Q02763)
Sequence of Tie2(h) (Q02763 23-1124): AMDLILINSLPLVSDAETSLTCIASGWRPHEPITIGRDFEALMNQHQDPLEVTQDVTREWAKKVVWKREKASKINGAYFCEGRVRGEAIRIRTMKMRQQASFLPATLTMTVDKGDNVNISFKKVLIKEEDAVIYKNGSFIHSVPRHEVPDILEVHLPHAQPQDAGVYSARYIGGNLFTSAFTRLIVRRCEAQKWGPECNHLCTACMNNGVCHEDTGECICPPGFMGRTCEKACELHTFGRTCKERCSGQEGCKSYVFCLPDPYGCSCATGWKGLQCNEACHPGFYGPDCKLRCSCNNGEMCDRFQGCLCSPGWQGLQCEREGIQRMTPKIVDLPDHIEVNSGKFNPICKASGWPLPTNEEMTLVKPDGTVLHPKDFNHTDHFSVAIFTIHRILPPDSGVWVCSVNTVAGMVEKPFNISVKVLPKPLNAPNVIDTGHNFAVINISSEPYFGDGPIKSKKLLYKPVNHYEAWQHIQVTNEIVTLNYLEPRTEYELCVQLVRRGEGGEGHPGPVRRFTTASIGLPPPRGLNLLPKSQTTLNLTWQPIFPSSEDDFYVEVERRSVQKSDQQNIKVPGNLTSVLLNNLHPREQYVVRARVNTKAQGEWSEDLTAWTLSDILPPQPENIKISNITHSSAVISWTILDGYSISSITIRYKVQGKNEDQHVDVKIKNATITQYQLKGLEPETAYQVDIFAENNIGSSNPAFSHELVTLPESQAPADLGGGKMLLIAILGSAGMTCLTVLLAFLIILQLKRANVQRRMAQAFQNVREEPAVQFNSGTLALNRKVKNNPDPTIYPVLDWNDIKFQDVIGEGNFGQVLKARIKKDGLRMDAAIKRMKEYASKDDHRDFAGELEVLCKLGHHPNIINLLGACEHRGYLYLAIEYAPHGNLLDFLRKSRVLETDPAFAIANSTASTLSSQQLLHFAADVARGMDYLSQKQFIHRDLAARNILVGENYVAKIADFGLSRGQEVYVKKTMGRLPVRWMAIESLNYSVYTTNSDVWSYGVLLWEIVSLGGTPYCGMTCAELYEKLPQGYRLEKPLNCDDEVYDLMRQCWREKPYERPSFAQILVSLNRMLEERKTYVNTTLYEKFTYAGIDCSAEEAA
Procedure: as §1, §2

[4] = biological target: Lck(h) activated (Homo sapiens, UniProt P06239)
Procedure: as §1, §2

[5] = biological target: T3, PTK5(h) (Homo sapiens, UniProt P42685)
T3 construct: purchased Millipore (IC50 Profiler Express service)
T3 sequence (P42685 whole entry): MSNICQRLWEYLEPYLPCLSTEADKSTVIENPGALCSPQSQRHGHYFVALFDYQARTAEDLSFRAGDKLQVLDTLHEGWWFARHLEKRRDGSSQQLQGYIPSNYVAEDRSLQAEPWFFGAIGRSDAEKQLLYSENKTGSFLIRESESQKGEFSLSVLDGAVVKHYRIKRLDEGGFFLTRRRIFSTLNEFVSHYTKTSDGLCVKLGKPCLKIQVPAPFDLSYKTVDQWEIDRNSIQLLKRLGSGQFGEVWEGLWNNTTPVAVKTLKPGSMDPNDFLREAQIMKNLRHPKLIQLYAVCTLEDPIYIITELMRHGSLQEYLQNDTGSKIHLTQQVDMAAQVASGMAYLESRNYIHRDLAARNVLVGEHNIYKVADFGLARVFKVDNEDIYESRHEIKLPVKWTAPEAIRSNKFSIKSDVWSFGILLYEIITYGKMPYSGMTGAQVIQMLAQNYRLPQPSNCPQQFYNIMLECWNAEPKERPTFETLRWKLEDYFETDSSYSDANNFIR
Procedure: as §1, §2

[6] = biological target: T4, PKG1α(h) (Homo sapiens, UniProt Q13976)
T4 construct: purchased Millipore (IC50 Profiler Express service)
T4 sequence (Q13976 1-671): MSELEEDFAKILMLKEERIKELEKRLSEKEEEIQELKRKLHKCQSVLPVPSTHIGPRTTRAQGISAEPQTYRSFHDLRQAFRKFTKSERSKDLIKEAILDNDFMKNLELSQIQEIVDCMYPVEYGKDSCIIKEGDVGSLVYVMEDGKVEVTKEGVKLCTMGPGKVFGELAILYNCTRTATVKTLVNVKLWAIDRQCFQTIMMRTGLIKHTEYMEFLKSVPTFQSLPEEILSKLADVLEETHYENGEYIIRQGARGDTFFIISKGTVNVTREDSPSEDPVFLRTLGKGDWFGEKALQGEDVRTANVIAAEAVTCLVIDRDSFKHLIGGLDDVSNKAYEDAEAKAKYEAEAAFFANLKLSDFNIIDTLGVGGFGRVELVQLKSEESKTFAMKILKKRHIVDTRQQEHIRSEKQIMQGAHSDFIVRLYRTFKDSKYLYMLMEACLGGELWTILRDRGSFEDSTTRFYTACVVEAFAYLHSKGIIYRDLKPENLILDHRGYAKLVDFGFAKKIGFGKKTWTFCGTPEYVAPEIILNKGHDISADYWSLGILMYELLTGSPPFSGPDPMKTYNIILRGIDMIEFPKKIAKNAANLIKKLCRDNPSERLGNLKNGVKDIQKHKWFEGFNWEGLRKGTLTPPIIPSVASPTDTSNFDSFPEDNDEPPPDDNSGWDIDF
Procedure: as §1, §2

[7] = biological target: PKCγ(h) (Homo sapiens, UniProt P05129)
Procedure: as §1, §2

[8] = biological target: FAK(h) (Homo sapiens, UniProt Q05397)
Sequence of FAK(h) (Q05397 whole entry): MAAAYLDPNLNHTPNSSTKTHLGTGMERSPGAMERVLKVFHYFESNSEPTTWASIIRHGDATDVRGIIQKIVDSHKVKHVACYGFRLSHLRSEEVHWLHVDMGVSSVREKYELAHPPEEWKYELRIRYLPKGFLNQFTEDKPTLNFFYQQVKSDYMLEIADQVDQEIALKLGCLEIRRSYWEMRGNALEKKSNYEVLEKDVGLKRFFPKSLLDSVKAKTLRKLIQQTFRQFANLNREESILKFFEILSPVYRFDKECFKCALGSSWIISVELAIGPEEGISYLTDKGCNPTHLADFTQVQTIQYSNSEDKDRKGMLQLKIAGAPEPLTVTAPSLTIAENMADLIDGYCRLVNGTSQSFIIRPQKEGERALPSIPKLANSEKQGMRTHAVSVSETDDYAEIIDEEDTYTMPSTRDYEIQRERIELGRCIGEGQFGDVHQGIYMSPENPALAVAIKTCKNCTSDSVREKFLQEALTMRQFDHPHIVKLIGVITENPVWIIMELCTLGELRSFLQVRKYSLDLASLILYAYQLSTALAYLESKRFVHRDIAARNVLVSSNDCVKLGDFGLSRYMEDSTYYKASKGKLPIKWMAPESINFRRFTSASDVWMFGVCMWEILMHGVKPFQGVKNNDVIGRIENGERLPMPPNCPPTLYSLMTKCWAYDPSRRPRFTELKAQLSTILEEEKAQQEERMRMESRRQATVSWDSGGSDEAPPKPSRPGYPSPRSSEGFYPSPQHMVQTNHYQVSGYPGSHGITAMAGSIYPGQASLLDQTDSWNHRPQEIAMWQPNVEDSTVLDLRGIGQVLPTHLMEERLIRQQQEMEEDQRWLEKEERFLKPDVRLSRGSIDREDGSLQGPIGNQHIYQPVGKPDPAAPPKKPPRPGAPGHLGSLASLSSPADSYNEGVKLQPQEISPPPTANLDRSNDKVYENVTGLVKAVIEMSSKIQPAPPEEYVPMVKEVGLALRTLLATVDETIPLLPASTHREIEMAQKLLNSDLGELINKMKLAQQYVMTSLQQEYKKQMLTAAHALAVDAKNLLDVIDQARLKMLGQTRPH
Procedure: as §1, §2

[9] = biological target: NEK7(h) (Homo sapiens, UniProt Q8TDX7)
Sequence of NEK7(h) (Q8TDX7 whole entry): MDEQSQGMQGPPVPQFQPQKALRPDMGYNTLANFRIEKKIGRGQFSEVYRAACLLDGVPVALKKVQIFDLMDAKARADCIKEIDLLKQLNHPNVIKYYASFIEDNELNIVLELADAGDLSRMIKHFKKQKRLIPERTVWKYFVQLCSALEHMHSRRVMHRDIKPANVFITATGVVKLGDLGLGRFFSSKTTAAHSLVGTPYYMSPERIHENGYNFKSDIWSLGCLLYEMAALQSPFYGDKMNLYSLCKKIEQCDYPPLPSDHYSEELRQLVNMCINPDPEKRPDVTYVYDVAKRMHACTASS
Procedure: as §1, §2

[10] = biological target: MINK(h) (Homo sapiens, UniProt Q8N4C8)
Sequence of MINK(h) (Q8N4C8 whole entry): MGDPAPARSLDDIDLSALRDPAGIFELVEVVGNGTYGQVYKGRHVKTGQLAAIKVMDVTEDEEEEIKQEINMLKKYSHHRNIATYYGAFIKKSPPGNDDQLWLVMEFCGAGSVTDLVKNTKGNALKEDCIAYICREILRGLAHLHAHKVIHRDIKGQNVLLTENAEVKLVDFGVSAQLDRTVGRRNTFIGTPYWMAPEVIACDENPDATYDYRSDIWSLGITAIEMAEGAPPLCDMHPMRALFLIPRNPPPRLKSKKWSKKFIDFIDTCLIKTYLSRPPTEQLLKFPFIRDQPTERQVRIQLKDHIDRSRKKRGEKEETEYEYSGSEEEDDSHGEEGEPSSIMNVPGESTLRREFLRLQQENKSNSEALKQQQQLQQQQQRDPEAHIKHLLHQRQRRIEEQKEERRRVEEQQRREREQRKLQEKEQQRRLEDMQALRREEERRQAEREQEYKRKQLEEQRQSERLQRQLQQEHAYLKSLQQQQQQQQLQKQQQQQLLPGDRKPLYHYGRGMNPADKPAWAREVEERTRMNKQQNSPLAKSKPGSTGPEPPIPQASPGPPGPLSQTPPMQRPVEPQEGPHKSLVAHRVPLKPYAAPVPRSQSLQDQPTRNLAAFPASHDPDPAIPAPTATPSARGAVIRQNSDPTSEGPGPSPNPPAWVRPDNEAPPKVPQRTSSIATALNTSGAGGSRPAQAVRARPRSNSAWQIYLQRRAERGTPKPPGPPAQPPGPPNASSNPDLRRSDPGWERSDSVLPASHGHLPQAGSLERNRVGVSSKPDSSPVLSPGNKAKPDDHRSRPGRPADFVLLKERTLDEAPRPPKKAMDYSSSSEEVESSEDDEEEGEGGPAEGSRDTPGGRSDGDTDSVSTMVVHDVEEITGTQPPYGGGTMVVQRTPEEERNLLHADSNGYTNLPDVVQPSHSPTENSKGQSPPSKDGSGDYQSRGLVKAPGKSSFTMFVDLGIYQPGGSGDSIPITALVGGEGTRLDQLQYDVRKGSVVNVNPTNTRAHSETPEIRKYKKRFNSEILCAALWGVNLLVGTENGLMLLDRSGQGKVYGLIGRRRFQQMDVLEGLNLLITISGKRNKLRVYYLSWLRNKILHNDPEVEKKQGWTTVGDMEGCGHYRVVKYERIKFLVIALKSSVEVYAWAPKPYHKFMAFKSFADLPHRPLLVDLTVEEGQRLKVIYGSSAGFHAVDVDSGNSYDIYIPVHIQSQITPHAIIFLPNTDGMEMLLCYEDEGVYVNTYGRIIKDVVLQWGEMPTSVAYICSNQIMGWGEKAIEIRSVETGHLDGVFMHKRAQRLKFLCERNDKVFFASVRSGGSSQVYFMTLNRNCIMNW
Procedure: as §1, §2

[11] = biological target: T5, IRAK4(h) (Homo sapiens, UniProt Q9NWZ3)
T5 construct: purchased Millipore
T5 sequence (Q9NWZ3 1-460): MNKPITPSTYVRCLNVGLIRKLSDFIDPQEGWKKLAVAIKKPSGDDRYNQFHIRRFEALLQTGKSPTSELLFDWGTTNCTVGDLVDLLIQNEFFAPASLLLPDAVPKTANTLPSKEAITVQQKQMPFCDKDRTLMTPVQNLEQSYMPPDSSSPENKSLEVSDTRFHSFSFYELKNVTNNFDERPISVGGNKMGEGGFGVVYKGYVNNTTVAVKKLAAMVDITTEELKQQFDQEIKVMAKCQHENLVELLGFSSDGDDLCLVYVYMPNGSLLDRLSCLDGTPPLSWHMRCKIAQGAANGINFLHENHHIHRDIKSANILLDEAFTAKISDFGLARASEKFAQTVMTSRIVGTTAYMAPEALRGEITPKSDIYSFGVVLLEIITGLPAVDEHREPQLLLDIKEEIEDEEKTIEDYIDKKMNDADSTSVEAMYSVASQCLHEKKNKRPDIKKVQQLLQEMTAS
Procedure: as §1, §2

[12] = biological target: SIK(h) (Homo sapiens, UniProt P57059)
Procedure: as §1, §2

[13] = biological target: FGFR3(h) (Homo sapiens, UniProt P22607)
Procedure: as §1, §2

[14] = biological target: T6, Rsk2(h) (Homo sapiens, UniProt P51812)
T6 construct: purchased Millipore (IC50 Profiler Express service)
Procedure: as §1, §2

[15] = biological target: T7, MKK6(h) (Homo sapiens, UniProt P52564)
T7 sequence (P52564 1-334): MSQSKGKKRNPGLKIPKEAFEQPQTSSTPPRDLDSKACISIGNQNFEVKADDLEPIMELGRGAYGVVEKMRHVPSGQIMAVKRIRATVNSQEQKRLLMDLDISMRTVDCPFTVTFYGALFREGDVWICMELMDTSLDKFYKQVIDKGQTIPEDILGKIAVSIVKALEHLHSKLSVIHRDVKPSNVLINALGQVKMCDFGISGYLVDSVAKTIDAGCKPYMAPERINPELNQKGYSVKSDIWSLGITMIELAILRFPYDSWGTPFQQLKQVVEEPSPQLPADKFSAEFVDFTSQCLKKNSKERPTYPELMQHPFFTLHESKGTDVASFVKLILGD
Procedure: as §1, §2

[16] = biological target: Abl(Y253F)(h) (Homo sapiens, UniProt P00519, Y253F)
Procedure: as §1, §2

[17] = biological target: MARK1(h) (Homo sapiens, UniProt Q9P0L2)
Procedure: as §1, §2

Sequence	HIPK2(h) % activity [1]	IR(h) % activity [2]	Tie2(h) % activity [3]	Lck(h) activated % activity [4]	PTK5(h) % activity [5]	PKG1α(h) % activity [6]	PKCγ(h) % activity [7]	FAK(h) % activity [8]	NEK7(h) % activity [9]	MINK(h) % activity [10]	IRAK4(h) % activity [11]	SIK(h) % activity [12]	FGFR3(h) % activity [13]	Rsk2(h) % activity [14]	MKK6(h) % activity [15]	Abl(Y253F)(h) % activity [16]	MARK1(h) % activity [17]
HRRIKAWLKKIKALARQLGVAA (Mammalian) [MMI-0500]	38%	95%	22%	76%	96%	25%	6%	94%	89%	5%	3%	40%	10%	14%	18%	29%	110%
KAFAKLAARLYRKALARQLGVAA [MMI-0400]	90%	85%	21%	216%	129%	58%	79%	96%	87%	52%	59%	68%	0%	38%	44%	78%	120%
FAKLAARLYRKALARQLGVAA [MMI-0300]	73%	96%	26%	243%	132%	64%	89%	–	84%	48%	59%	66%	–	51%	48%	86%	132%
YARAAARQARAKALNRQLGVA (Mammalian) [MMI-0200]	–	90%	53%	90%	108%	70%	101%	110%	96%	–	110%	–	208%	101%	98%	–	–
